Data from the Human Domainome abundance scans (Beltran et al. 2025).

B1: Protein C-ets-1, residues 55 to 135; numbered along this chain, P14921 (parent)
chain: GFTKEQQRLGIPKDPRQWTETHVRDWVMWAVNEFSLKGVDFQKFCMNGAALCALGKDCFLELAPDFVGDILWEHLEILQKE

Variants of: B1
Assay: abundance fitness (aPCA) (normalised: wild type 0, dead -1); higher = more abundant; growth selection in yeast, the domain comes from the species named
Settings: Homo sapiens

Abundance fitness, by site and new letter:
R24: C -0.111, H 0.051, W -0.3, E -0.275, N -0.062, I -0.133, M 0.023, K 0.096, D -0.827, A -0.087, T -0.087, F -0.287, L -0.05, V -0.059, Y -0.152, P -1.03, Q -0.039, S -0.152
F34: I -0.9, Q -0.358, M -0.362, W -0.039, H -0.084, Y -0.023, K -0.175, R -0.3, L -0.276, N -0.244, C -0.428, S -0.52, P -0.886, D -0.623, T -0.743, E -0.425, A -0.493
D25: P -0.973, V -0.061, L 0.016, F -0.124, Q -0.003, R -0.023, I -0.033, A 0.014, G -0.038, T -0.038, W -0.05, C -0.01, H 0.041, M -0.061, K -0.005, E 0.06, Y -0.027, S -0.008
T21: R 0.039, S -0.016, V -0.041, W -0.196, Y 0.043, Q 0.002
N32: E -0.042, C -0.132, L -0.179, K 0.028, I -0.193, T -0.042, M -0.119, D 0.046, S -0.008, P -0.49, W -0.332, Q 0.003, Y -0.327, A -0.001, G -0.018, H 0.032, V -0.111, R 0.019, F -0.399
D40: N -0.146, P -0.343, F -0.685, I -0.32, E -0.059, L -0.482, K -0.234, C -0.134, M -0.368, A -0.294, H -0.225, G -0.546
V27: P -0.86, D -0.887, M -0.045, S -0.841, A -0.2, F -0.214, E -1, G -0.739, N -0.796, L -0.013, K -0.983, H -0.931, R -0.876, Y -0.992, C -0.18, W -0.625, I -0.003
V31: T 0.006, K -0.18, Q -0.126, E -0.19, M -0.069, N -0.401, F -0.645, H -0.495, L -0.326, R -0.274, D -0.491, Y -0.44, C -0.013, S -0.076, G -0.427, A 0.018, I -0.053
G38: I -0.428, F -0.43, E -0.103, Q -0.221, D -0.039, P -0.172, M -0.273, R -0.18, S -0.123, C -0.334, W -0.467, V -0.476, N 0.052, K -0.055, A -0.202, T -0.201, L -0.492, H 0
A30: N -0.108, K -0.366, T 0.003, D -0.671, I -0.196, L -0.187, S -0.062, W -0.195, Q -0.183, P -0.8, R -0.643, C -0.02, E -0.032, F -0.187, G -0.197, H -0.107, Y -0.188, M -0.008
V23: Q -0.909, F -0.857, P -0.985, K -0.904, W -0.822, R -0.686, N -0.858, E -1.03, M -0.916, S -0.48, A -0.631, G -0.967, H -0.838, L -0.728, I -0.438, D -0.906, C -0.559, Y -0.955, T -0.126
V39: H -0.537, L -0.141, Y -0.688, S -0.624, K -0.533, R -0.749, I -0.061, F -0.239, N -0.755, T -0.387, W -0.445, A -0.511, G -0.714, M -0.267, D -0.699, C -0.194, Q -0.683
S35: D 0.017, N -0.178, Y -0.288, C -0.072, K -0.012, R -0.029, F -0.413, V -0.381, Q 0.062, T -0.034, W -0.559, I -0.539, M -0.142, G 0.012, P -0.625, A -0.069, L -0.364
W29: E -0.561, D -0.685, R -0.489, K -0.659, T -0.515, G -0.492, V -0.767, N -0.586, C -0.364, S -0.395, I -0.803, Q -0.59, A -0.415
M28: T 0.07, E 0.005, Q 0.014, C -0.006, R -0.004, I 0.006, V 0.009, W -0.11, P -0.88, N 0.054, K -0.016, L -0.022, S 0.017, A -0.026, G -0.055, F -0.088, Y -0.153
E33: F -0.134, L -0.503, A -0.071, N -0.078, I -0.498, Y -0.099, C -0.132, H -0.006, G -0.539, T -0.063, M -0.316, P -0.796, Q -0.099, K -0.001, R -0.042, W -0.179, S -0.117
L36: R -1.05, G -0.661, Q -0.624, D -0.763, K -0.58, Y -0.539, A -0.52, M -0.343, T -0.697, C -0.332, V -0.276, W -0.29, N -0.691, E -1, S -0.751, P -0.725, I -0.215, F -0.139
W26: M -0.898, D -0.668, K -0.727, G -0.895, V -0.863, S -0.968, A -0.845, N -0.865, H -0.822, E -0.84, L -0.966, F -0.213, R -0.934, Y -0.281, P -0.861, T -0.954, I -1.1, C -0.662
H22: K -1.07, P -0.85, A -0.33, Q -0.063, Y -0.625, C -0.801, I -0.881, L -0.687, N 0.023, T -0.528, M -0.18, E -0.062, W -0.904, G -0.565, V -0.673, D -0.047, R -0.818, F -0.965, S -0.472
K37: I -0.064, D -0.022, T -0.027, F -0.199, S -0.033, W -0.213, Q 0.005, A -0.046, E 0.044, M -0.146, N -0.033, R -0.076, Y -0.255, L -0.161, P -0.043, V -0.017, H -0.048, C -0.128, G -0.054
